T1: human EphA1 extracellular region-SEAP-His protein (human, UniProt P21709 26-547)
T1 construct: extracellular domain; also called hEphA1-SEAP-His
T1 sequence (looked up): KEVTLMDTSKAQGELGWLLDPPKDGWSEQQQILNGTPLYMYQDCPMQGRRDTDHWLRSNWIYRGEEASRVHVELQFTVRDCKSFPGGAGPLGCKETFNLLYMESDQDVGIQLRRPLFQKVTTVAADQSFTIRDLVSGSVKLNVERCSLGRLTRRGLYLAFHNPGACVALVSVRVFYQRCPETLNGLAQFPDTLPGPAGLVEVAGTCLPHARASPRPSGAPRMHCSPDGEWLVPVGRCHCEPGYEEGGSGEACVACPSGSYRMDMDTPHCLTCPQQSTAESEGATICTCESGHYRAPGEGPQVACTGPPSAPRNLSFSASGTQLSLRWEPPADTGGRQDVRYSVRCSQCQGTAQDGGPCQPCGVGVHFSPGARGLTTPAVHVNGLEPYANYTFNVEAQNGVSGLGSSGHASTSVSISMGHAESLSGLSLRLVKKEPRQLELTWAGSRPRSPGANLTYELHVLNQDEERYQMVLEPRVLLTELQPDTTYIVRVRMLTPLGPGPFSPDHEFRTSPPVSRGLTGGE

T2: human EphA3 extracellular region-SEAP-His protein (human, UniProt P29320 21-541)
T2 construct: extracellular domain; also called hEphA3-SEAP-His
T2 sequence (looked up): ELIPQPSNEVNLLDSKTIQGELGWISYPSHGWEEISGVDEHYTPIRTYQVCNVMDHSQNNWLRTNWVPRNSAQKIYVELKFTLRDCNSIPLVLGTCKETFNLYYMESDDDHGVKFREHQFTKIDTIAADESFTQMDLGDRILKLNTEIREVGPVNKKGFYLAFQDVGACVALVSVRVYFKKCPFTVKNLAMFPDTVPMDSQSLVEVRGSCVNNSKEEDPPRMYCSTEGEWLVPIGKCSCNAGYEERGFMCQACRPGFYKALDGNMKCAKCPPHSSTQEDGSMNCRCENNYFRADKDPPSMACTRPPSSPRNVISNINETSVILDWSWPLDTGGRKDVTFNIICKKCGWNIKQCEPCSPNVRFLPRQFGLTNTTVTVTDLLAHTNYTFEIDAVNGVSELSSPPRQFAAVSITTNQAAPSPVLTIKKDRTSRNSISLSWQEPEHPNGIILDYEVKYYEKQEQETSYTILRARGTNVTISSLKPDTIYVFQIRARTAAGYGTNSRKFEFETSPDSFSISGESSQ

T3: human EphA6 extracellular region-SEAP-His protein (human, UniProt Q9UF33 23-550)
T3 construct: extracellular domain; also called hEphA6-SEAP-His
T3 sequence (looked up): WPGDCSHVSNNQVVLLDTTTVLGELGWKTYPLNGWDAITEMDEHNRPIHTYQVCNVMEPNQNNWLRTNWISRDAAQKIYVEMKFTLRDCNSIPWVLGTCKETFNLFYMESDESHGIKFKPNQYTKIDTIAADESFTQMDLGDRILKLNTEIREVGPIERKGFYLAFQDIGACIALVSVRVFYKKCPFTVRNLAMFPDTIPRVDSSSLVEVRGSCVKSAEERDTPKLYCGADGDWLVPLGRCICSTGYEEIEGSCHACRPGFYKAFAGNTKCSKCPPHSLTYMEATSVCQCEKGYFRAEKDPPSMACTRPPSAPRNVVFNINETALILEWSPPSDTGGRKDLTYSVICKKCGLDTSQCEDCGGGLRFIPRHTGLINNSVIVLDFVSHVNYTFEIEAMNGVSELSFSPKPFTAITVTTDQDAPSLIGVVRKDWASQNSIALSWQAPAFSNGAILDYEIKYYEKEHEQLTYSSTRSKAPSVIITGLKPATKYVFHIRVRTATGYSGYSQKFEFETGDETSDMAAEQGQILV

T4: human EphB1 extracellular region-SEAP-His protein (human, UniProt P54762 18-540)
T4 construct: extracellular domain; also called hEphB1-SEAP-His
T4 sequence (looked up): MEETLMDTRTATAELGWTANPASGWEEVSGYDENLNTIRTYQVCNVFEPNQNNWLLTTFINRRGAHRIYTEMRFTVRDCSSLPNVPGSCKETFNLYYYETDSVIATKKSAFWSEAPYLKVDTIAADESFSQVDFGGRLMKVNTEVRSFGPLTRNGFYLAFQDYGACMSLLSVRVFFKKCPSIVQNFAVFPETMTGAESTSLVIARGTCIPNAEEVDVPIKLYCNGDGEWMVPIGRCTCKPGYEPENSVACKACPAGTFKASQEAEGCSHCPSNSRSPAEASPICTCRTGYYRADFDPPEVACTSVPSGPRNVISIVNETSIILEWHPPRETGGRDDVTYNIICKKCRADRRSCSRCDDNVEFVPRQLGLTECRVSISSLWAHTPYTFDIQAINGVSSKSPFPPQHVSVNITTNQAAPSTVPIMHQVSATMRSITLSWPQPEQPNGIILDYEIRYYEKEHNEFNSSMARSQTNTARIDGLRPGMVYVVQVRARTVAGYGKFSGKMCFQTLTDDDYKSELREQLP


Tests used:
Assay in all cases: ELISA
SEAP-His = SEAP-His (UniProt P05187 23-511)
Chain of SEAP-His (P05187 23-511): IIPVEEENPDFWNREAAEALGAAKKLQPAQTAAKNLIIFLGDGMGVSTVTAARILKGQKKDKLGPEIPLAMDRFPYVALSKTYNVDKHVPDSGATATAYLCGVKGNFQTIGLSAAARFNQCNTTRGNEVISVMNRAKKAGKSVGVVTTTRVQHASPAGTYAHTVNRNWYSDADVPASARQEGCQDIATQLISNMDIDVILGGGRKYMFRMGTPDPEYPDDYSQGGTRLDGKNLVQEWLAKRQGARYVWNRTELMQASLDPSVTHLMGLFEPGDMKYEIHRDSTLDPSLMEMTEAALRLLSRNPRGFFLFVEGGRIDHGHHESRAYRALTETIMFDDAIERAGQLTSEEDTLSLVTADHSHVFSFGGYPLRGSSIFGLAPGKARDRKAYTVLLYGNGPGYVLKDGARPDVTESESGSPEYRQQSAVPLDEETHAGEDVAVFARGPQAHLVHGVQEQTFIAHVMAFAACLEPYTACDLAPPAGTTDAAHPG

[1] = biological target: T1, human EphA1 extracellular …
[2] = biological target: T2, human EphA3 extracellular …
[3] = biological target: T3, human EphA6 extracellular …
[4] = biological target: T4, human EphB1 extracellular …
[5] = biological target: T5, human EphA4 extracellular region-SEAP-His protein (human, UniProt P54764 20-547)
T5 construct: also called hEphA4-SEAP-His
T5 sequence (P54764 20-547): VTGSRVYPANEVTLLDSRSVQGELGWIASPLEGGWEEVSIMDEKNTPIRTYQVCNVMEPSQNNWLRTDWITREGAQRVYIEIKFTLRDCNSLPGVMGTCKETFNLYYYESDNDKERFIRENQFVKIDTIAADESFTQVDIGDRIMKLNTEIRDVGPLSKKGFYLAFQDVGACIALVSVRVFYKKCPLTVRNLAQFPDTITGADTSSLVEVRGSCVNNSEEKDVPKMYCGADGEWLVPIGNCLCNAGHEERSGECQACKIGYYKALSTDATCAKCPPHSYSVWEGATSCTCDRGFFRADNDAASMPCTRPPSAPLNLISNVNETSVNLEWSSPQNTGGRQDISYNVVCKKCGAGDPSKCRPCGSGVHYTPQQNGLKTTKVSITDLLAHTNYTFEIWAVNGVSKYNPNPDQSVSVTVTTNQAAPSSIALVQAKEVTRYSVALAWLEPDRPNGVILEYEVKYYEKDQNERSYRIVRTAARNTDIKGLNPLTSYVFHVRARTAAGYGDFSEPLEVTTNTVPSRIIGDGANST

A450 as % of hEphA4-SEAP-His (SEAP-His) [%]	A450 as % of hEphA4-SEAP-His [1] [%]	A450 as % of hEphA4-SEAP-His [2] [%]	A450 as % of hEphA4-SEAP-His [3] [%]	A450 as % of hEphA4-SEAP-His [4] [%]	A450 as % of hEphA4-SEAP-His [5] [%]	Binder
5.8	5.5	5.8	8.4	5.7	100	humanized antibody No. 89 (antibody, human IgG1, kappa, human Ig kappa; also called L1-6/HA4) heavy: QIQLVQSGSELKKPGASVKVSCKASGYTFTDYSMHWVRQAPGQGLKWMGWINTETGEPTYAQGFTGRFVFSLDTSVSTAYLQISSLKAEDTAVYYCARIPLYYYGSRYWYFDVWGQGTTVTVSSASTKGPSVFPLAPSSKSTSGGTAALGCLVKDYFPEPVTVSWNSGALTSGVHTFPAVLQSSGLYSLSSVVTVPSSSLGTQTYICNVNHKPSNTKVDKRVEPKSCDKTHTCPPCPAPPAAAPSVFLFPPKPKDTLMISRTPEVTCVVVDVSHEDPEVQFNWYVDGVEVHNAKTKPREEQFNSTFRVVSVLTVVHQDWLNGKEYKCKVSNKGLPAPIEKTISKTKGQPREPQVYTLPPSREEMTKNQVSLTCLVKGFYPSDIAVEWESNGQPENNYKTTPPMLDSDGSFFLYSKLTVDKSRWQQGNVFSCSVMHEALHNHYTQKSLSLSPG light: DIQMTQSPSSLSASVGDRVTITCRASENIYRNLAWYQQKPGKAPQLLLYAATNLADGVPSRFSGSGSGTDYTLTISSLQPEDFATYYCQHFWGTPWTFGQGTKVEIKRTVAAPSVFIFPPSDEQLKSGTASVVCLLNNFYPREAKVQWKVDNALQSGNSQESVTEQDSKDSTYSLSSTLTLSKADYEKHKVYACEVTHQGLSSPVTKSFNRGEC
5.2	5.1	5.2	7.6	4.9	100	humanized antibody No. 90 (antibody, human IgG1, kappa, human Ig kappa; also called L1-6/HK1) heavy: QVQLVQSGSELKKPGASVKVSCKASGYTFTDYSMHWVRQAPGQGLEWMGWINTETGEPTYADDFKGRFVFSLDTSVSTAYLQISSLKAEDTAVYYCARIPLYYYGSRYWYFDVWGQGTTVTVSSASTKGPSVFPLAPSSKSTSGGTAALGCLVKDYFPEPVTVSWNSGALTSGVHTFPAVLQSSGLYSLSSVVTVPSSSLGTQTYICNVNHKPSNTKVDKRVEPKSCDKTHTCPPCPAPPAAAPSVFLFPPKPKDTLMISRTPEVTCVVVDVSHEDPEVQFNWYVDGVEVHNAKTKPREEQFNSTFRVVSVLTVVHQDWLNGKEYKCKVSNKGLPAPIEKTISKTKGQPREPQVYTLPPSREEMTKNQVSLTCLVKGFYPSDIAVEWESNGQPENNYKTTPPMLDSDGSFFLYSKLTVDKSRWQQGNVFSCSVMHEALHNHYTQKSLSLSPG light: DIQMTQSPSSLSASVGDRVTITCRASENIYRNLAWYQQKPGKAPQLLLYAATNLADGVPSRFSGSGSGTDYTLTISSLQPEDFATYYCQHFWGTPWTFGQGTKVEIKRTVAAPSVFIFPPSDEQLKSGTASVVCLLNNFYPREAKVQWKVDNALQSGNSQESVTEQDSKDSTYSLSSTLTLSKADYEKHKVYACEVTHQGLSSPVTKSFNRGEC
6.5	7	6.5	9.6	6.9	100	humanized antibody No. 92 (antibody, human IgG1, kappa, human Ig kappa; also called L1-6/HK4) heavy: QIQLVQSGSELKKPGASVKVSCKASGYTFTDYSMHWVRQAPGQGLKWMGWINTETGEPTYADDFKGRFVFSLDTSVSTAYLQISSLKAEDTAVYYCARIPLYYYGSRYWYFDVWGQGTTVTVSSASTKGPSVFPLAPSSKSTSGGTAALGCLVKDYFPEPVTVSWNSGALTSGVHTFPAVLQSSGLYSLSSVVTVPSSSLGTQTYICNVNHKPSNTKVDKRVEPKSCDKTHTCPPCPAPPAAAPSVFLFPPKPKDTLMISRTPEVTCVVVDVSHEDPEVQFNWYVDGVEVHNAKTKPREEQFNSTFRVVSVLTVVHQDWLNGKEYKCKVSNKGLPAPIEKTISKTKGQPREPQVYTLPPSREEMTKNQVSLTCLVKGFYPSDIAVEWESNGQPENNYKTTPPMLDSDGSFFLYSKLTVDKSRWQQGNVFSCSVMHEALHNHYTQKSLSLSPG light: DIQMTQSPSSLSASVGDRVTITCRASENIYRNLAWYQQKPGKAPQLLLYAATNLADGVPSRFSGSGSGTDYTLTISSLQPEDFATYYCQHFWGTPWTFGQGTKVEIKRTVAAPSVFIFPPSDEQLKSGTASVVCLLNNFYPREAKVQWKVDNALQSGNSQESVTEQDSKDSTYSLSSTLTLSKADYEKHKVYACEVTHQGLSSPVTKSFNRGEC
6.4	5.8	6.6	8.8	6.6	100	humanized antibody No. 91 (antibody, human IgG1, kappa, human Ig kappa; also called L1-6/HK2) heavy: QVQLVQSGSELKKPGASVKVSCKASGYTFTDYSMHWVRQAPGQGLKWMGWINTETGEPTYADDFKGRFVFSLDTSVSTAYLQISSLKAEDTAVYYCARIPLYYYGSRYWYFDVWGQGTTVTVSSASTKGPSVFPLAPSSKSTSGGTAALGCLVKDYFPEPVTVSWNSGALTSGVHTFPAVLQSSGLYSLSSVVTVPSSSLGTQTYICNVNHKPSNTKVDKRVEPKSCDKTHTCPPCPAPPAAAPSVFLFPPKPKDTLMISRTPEVTCVVVDVSHEDPEVQFNWYVDGVEVHNAKTKPREEQFNSTFRVVSVLTVVHQDWLNGKEYKCKVSNKGLPAPIEKTISKTKGQPREPQVYTLPPSREEMTKNQVSLTCLVKGFYPSDIAVEWESNGQPENNYKTTPPMLDSDGSFFLYSKLTVDKSRWQQGNVFSCSVMHEALHNHYTQKSLSLSPG light: DIQMTQSPSSLSASVGDRVTITCRASENIYRNLAWYQQKPGKAPQLLLYAATNLADGVPSRFSGSGSGTDYTLTISSLQPEDFATYYCQHFWGTPWTFGQGTKVEIKRTVAAPSVFIFPPSDEQLKSGTASVVCLLNNFYPREAKVQWKVDNALQSGNSQESVTEQDSKDSTYSLSSTLTLSKADYEKHKVYACEVTHQGLSSPVTKSFNRGEC

From patent US20190077860A1 (EISAI R AND D MANAGEMENT, published 2019)
